Results published in patent publication US9175027B2, “Polymer-carbohydrate-lipid conjugates” (priority 2011, dated 2015).
Ends that are not written are not given here.

Experiments:
[1] = Stability of peptide solution by HPLC assay; format: physicochemical; conditions: 24 hours
Protocol: Stability experiment was carried out by HPLC assay and a custom synthesized thermolabile peptide with the following sequence was used as the model compound: […] The peptide was added to selected media and sonicated for 10 minutes. The sample solutions were filtered through passed through 0.22-μm pore-size filter to remove dust particles before the HPLC assay. A Simadzu 10avp chromatography system with a Kinetex C18 (2.6 μm, 100×4.6 mm i.d.) column (Phenomenex, Torrance, Calif.) were used. The solutions were kept at 25° C. in the Autosampler during the assay and the mobile phase consisted of 0.1% of trifluoroacetic acid and acetonitrile mixture (v/v, 80/20) with a flow rate of 1.0 mL/min. The peptide peak was monitored at 210 nm and quantitated using external standard sets of the peptide.
The plots were the % recovery vs. time.

[2] = Physical state of Propofol formulation with PEG-carbohydrate-lipid (solution vs suspension/microemulsion); format: physicochemical
Protocol: A propofol solution suitable for intravenous delivery is prepared as follows. 5% (w/v) of OAPDL-PEG in Saline was added to a vessel equipped with a mixer propeller and 2% (w/v) of Propofol was added with constant mixing at ambient room temperature. Mixing was continued until the drug was visually dispersed. Equal volume of Saline was added to the vessel with adequate mixing. Mixing continued for another 30 minutes or until a homogenous solution was achieved. A sample formulation is described in Table 14.
In Example 16, less concentrated or less purified PEG-sugar-lipid will create a suspension instead of an aqueous solution. For instance, the final concentration of the PEG-carbohydrate-lipid is less than 1.5% (w/v), it will form a suspension. Similarly when the oligomer purity is 80% or less, regardless the concentration of the PEG-carbohydrate-lipid, an emulsified solution will be observed instead of a transparent solution.
Propofol as the active agent was formulated with various polymer-lipid-carbohydrate conjugates described in the present invention. At a lower of the polymer-lipid-carbohydrate conjugate concentration, i.e., OAPDL-11 (<1.5%), the formulation is a microemulsion and at a higher OAPDL-11 concentration (≧2.2%), it is a true solution.
A solution is defined as a homogenous mixture of substances with variable composition. […]

[3] = Body weight change as evidence of cisplatin renal toxicity; format: in vivo, mice (B6D2F1); conditions: mice, compared with free sugars
Protocol: Groups of four each of mixed gender mice (B6D2F1), […] and weights of 22 to 30 grams) were studied in duplicate. Each mouse was administrated cisplatin intravenously at a dose of 10 mg/kg (Table 15) and Intraperitoneally at a dose of 15 mg/kg (Table 16). The changes in body weights observed can be used as a direct evident in the renal toxicity effects.

Row | Substance | peptide degradation ([1]; in a 50 mM of phosphate buffer) | peptide still remaining ([1]; in a 2% of PEG-carbohydrate-lipid) | state of Propofol formulation ([2]; OAPDL-11 concentration <1.5%) | state of Propofol formulation ([2]; OAPDL-11 concentration ≧2.2%) | intravenous hydration effect for reducing renal toxicity of cisplatin [3]
1 | FPKLSHGCNKHSRKHPYMTF [peptide, custom synthesized thermolabile peptide used as the model compound] | degraded significantly | more than 97% |  |  | 
2 | oleoyl-N-(3-aminopropyl)propane-1,3-diamine-Undecaethylene glycol methyl ether Lactobionate [OAPDL-11] |  |  | microemulsion | true solution | better than free sugars
